Experimental data from the nanobody polyreactivity screen of Harvey et al. (2022).

Assay: yeast display, Sf9 membrane polyspecificity reagent, FACS + sequencing; frameworks hold sequencing errors
Method in brief: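 Nanobodies from a synthetic yeast display library (Saccharomyces cerevisiae BJ5465), induced 36–48 hours with galactose, were stained 1 hour at 4 °C with 10% biotinylated, detergent-solubilized Sf9 membrane reagent, enriched on streptavidin microbeads, then FACS-sorted. Anti-HA (expression) and streptavidin (reagent binding) fluorescence set low and high (top ~1%) gates. Polyreactivity labels come from the gate of origin. Genes were colony-PCR amplified, MiSeq 2 × 250 sequenced and filtered by CDR length.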

| Sequence | polyreactivity (PSR sort gate) |
| --- | --- |
| QVQLVESGGGLVQAGGSLRLTCAASGFIFPNNAMGWYRQAPGKESELVAAISYSGGSTNYADSVKARFTISRDNAKNTVYLQMNSLKPEDTAVYYCAKADPAYLWGLREYDYWGQGTQVTVSS | low polyreactivity |
| QVQLVESGGGLVQAGGSLRLSCAASGSTFDYNTMGWYRQAPGTERELVADITWRGASTYYADSVKGRFTISRDNAKNTVYLQMNSLKPEDTAVYYCAADYYSATGSYAYDYWGQGTQVTVSS | low polyreactivity |
| QVQLVESGGGLFQAGGSLRLSCAASGFTFIPYTMGWYRQAPGKERELVASIISGGSTNYADSVKGRFTISRDNAKNTVYFQMKSLKPEDTAVYYCAAVYFYYCYGWYYYWGQGTQVTVSS | high polyreactivity |
| QVQLVESGGGLVQAGGSLRLSCAASGSTFAPYAMGWYRQAPGKERELVASIRSTGSTNYADSVKGRFTISRDNAKNTVYLQMNSLKPEDTAVYYCAARYRRYQYRVKVDYYYWGQGTQVTVSA | high polyreactivity |
| QDQLVESGGGLVQAGGSLRLSCAASGSTFEYYAMGWYRQAPGKERELVAAISSGPSTTYADSVKGRFTISRDNAKNTVYLQMNSLKPEDTAVYYCARRDGTTQALFGYDYWGQGTQVTVSS | low polyreactivity |
| QVQHVESGGGLVQAGGSLRLSCAASGRIFVPYTMGWYRQAPGKERELVAAISRSGGSTYYADSVKGRFTISRDNAKNPVYLQMNSLKPEDTAVYYCAARATNVYSKMDYWGQGTQVTVSS | high polyreactivity |
| QVQLVESGGGLVQAGGSLRLSCAASGFIFTYYAMGWYRQAPGKERELVAAISSSGGRTAYADSVKGRFTISRDNAKNTVYLQMNSLKPEDTAVYFCNARGTYRVANYDYWGQGTQVTVSS | high polyreactivity |
| QVQLVESGGGLVQAGGSLRLSCAASGSTFVSNAMGWDRQAPGKERELVAAISSSGGRTSYADSEKGRFTISRDNAKNTVYLQMTSPKPEDTAVYYCAARFKSVDYVQYYYWGQGTQVTVSS | low polyreactivity |
| QLQHEESRGGLVQAGGSLRLSCAASGFIFPAYVMGWYRQAPGKERELVSAIDWSGDNTYYADSVKGRFTISRDNAKNTVYLQMNSLTPEDTAVYYCAKDNDYPTEWLSDYYYWGQGTQVTVSS | low polyreactivity |
| QVQLVESWGGLVQAGGSLRLSCAASGFTFDYNGMGWYRQAPWKERELVAGIRWSGGSTYYADSVKGRFTISRDNAKNTVSLQMNSLKPEDTAFYYCAADTLPAEYEYDYWGQGTQVTVSS | low polyreactivity |
| QVQLVESGGGLVQAGGSLRLSCAASGSTFYGNAMGWYRQAPGKERELVAAITWGDASTYYADSVKGRFTISRDNAKNTVYLQMNSLKPEDTAVYYCAVDESYGSSSDMDYWGQGTQVTVSS | low polyreactivity |
| QVQLVESGGGLVQAGGSLRLSCAASGFIFYRYAMGWYRQAPGKERELVAAISWSGGTTYYADSVKGRFTISRDNAKNTVYLQMNSLKPEDTAVYYCAARSVPSPERGFYYWGQGTQVTVSS | high polyreactivity |
| QVQLVESGGGLVQAGGSLRLSCAASGRIFPVNAMGCYRQAPGKEREFVSAIRGTGTSTYYADSVKGRFTISRDNAKNTVYLQMNSLKPEDTAVYYCAARGYVQYQGQNVNTFDYWGQGTQVTVSS | low polyreactivity |
| QVQLVESGGGLVQAGGSLRLSCAASGFIFYYYAMGWYRQAPGKERELVATITSGGGTYYADSVKGRFTISRDNAKNTVYVQMISLKPEDTAVYYCAKRDLEQSAFLGYDYWGQGTQVTVSS | low polyreactivity |
| QDQHVESGGGVVQAGGSRRLSCAASGFTISSYAMGWYRPAPGKERHLVAAITWSGSRTYYADSVKGRFTISRDNAKNTVYLQMNSLKPEDTAVYYCAATYRSYRGVRYYLGQGTQVTVSS | high polyreactivity |
| QVQLVESGGGLVQAGGSLRLSCAASGRTFEYNAMGWYRQAPGKEREFVAAITYSGGGTYYADSVKGRFTISRDNAKNTVYLQMNSLKPEDTAVYYCARERTRVHKHYYWGQGTQVTVSS | low polyreactivity |
| QVQLVESGVGLVKAGGILRLSCAASGSIFLRYAMGWYRQAPGKERELVATISKSGGSTYYADSVKGRFTISRDNAKNTVYLQMNSLNPEDTAVYYCAAGYVYFQTYYYWGQGTQVTVSS | high polyreactivity |
